Results as given in patent US20110230406A1 (ADVANCED TECHNOLOGIES AND REGENERATIVE MEDICINE, published 2011).
No end group written: not given here.

Assays:
[1] = biological target: T1, biotinylated BMP-2 (R&D Systems, Item number 355-BM/CF) (human, UniProt P12643 283-396, biotinylated (sites not given)); experiment: phage ELISA, biotinylated BMP-2 captured on streptavidin-coated wells, HRP anti-M13 antibody, luminescence
T1 construct: Bought protein, biotinylated, captured on streptavidin plates (phage ELISA) or streptavidin donor beads (ALPHA); also called bone morphogenic protein-2

human serum albumin = biological target: T2, human serum albumin (human, UniProt P02768 25-609); experiment: phage ELISA, HSA-coated wells, HRP anti-M13 antibody, luminescence
T2 construct: Cross-reactivity control coated at 5 micrograms/mL; also called HSA
Procedure: (§1) 96-well black ELISA plates were coated with streptavidin (Rows A through D), hIgG (Rows E and F) and human serum albumin (Rows G and H), at a concentration of 5 micrograms/mL in PBS. Plates were incubated overnight at 4° C. Plates were washed 3 times with TBST using a plate washer. To the streptavidin-coated wells in rows C and D, 100 microliters of a 4 micrograms/mL solution of biotinylated-BMP-2 (R&D Systems, Minneapolis, Minn., Item number 355-BM/CF), was introduced and allowed to sit at room temperature for 30 minutes. To all other wells, 100 microliters of PBS was introduced. The plates were again washed 3 times with TBST using the plate washer. The wells were then blocked with 250 microliters of a 3% dehydrated milk suspension in TBST and allowed to sit at room temperature for a minimum of 1 hour. Using phage concentrations determined by the phage titrations, dilutions of the phage stock solutions were performed in a separate 96-well plate to result in phage concentrations of 10¹⁰, 10⁹, 10⁸, 10⁷, 10⁶ and 10⁵ phage/well. After blocking, the ELISA plate was washed 3 times with TBST and 100 microliters of the phage dilutions were introduced to the respective ELISA plates and allowed to sit at room temperature for a minimum of 1 hour. The ELISA plate was again washed 3 times with TBST using the plate washer and 100 microliters of an HRP-conjugated Anti-M13 Phage Mab (1:5000 dilution in PBS) was introduced to each well. The plates were allowed to sit at room temperature for 1 hour after which time the plates were washed 3 times with TBST. Next, a POD HRP-substrate was introduced to each well. The luminescence was read using a luminometer set with a gain of 150.

[2] = biological target: T1, biotinylated BMP-2 (R&D Systems, Item …); experiment: mutant phage ELISA titration on BMP-2 by the procedure of Example 3
Procedure: as §1, with “To” for “96-well black ELISA plates were coated with streptavidin (Rows A through D), hIgG (Rows E and F) and human serum albumin (Rows G and H), at a concentration of 5 micrograms/mL in PBS. Plates were incubated overnight at 4° C. Plates were washed 3 times with TBST using a plate washer. To the streptavidin-coated wells in rows C and D, 100 microliters of a 4 micrograms/mL solution of biotinylated-BMP-2 (R&D Systems, Minneapolis, Minn., Item number 355-BM/CF), was introduced and allowed to sit at room temperature for 30 minutes. To”
The respective custom oligonucleotide was obtained from Integrated DNA Technologies. The oligonucletides were inserted into the pIX gene using standard protocols. First, the oligonucletides were phosphorylated using T4 polynucleotide kinase. Next, the phosphorylated oligonucletides were annealed to the ssDNA template. Using the Kunkel method, the annealed DNA was ligated using T4 DNA ligase and T7 DNA polymerase. The resultant DNA was isolated using isopropanol precipitation and a gel was run to confirm the reaction. Lastly, electro-competent E. coli cells were transformed with the purified DNA and were plated out onto 2xYT/Tet/Xgal agar plates and allowed to grow overnight to isolate single colonies. An aliquot of the transformed cells was allowed to grow overnight at 37° C. while shaking in 50 mL 2xYT/tet media. The phage were then PEG precipitated following the procedure in Example 1. A phage titration was performed to determine the concentration of phage for the ELISA assay as described in Example 2. ELISA assays were performed following the procedure in Example 3.

[3] = biological target: T1, biotinylated BMP-2 (R&D Systems, Item …); experiment: phage ELISA titration, biotinylated BMP-2 captured on streptavidin-coated wells, HRP anti-M13 antibody, luminescence
Procedure: as §1

T1 sequence (P12643 283-396 limits assumed): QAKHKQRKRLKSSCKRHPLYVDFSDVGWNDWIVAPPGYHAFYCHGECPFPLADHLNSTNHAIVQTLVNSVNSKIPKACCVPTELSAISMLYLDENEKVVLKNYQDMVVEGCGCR

Row | Binder | binding result [1] | binding result (human serum albumin) | binding result [2] | binding result [3]
1 | AGTVCPPDLTGLTAACYY (cysteine pairing not given here; also: displayed on phage pIX minor coat protein, not shown: pIX minor coat protein of the phage that carries the peptide) [phage displaying the peptide of SEQ ID NO: 19 on the pIX minor coat protein] | binds | no binding (tested: 10^9 phage/mL) |  | 
2 | AGRDSFNLLTSSPLSSS [SEQ ID NO: 32] |  |  | binds | 
3 | AGPPGPYIAASAFLALK (also: displayed on phage pIX minor coat protein, junction not given here, not shown: pIX minor coat protein of the phage that carries the peptide) [phage displaying the peptide of SEQ ID NO: 2 on the pIX minor coat protein] | binds | no binding (tested: 10^9 phage/mL) |  | 
4 | AGSVCLAQYSATPLCPH (cysteine pairing not given here; also: displayed on phage pIX minor coat protein, not shown: pIX minor coat protein of the phage that carries the peptide) [phage displaying the peptide of SEQ ID NO: 15 on the pIX minor coat protein] | binds | no binding (tested: 10^9 phage/mL) |  | 
5 | AGIRCPVDAIGLTANCSY (cysteine pairing not given here; also: displayed on phage pIX minor coat protein, not shown: pIX minor coat protein of the phage that carries the peptide) [phage displaying the peptide of SEQ ID NO: 21 on the pIX minor coat protein] | binds | no binding (tested: 10^9 phage/mL) |  | 
6 | AGASCSPGLHPLCPG (cysteine pairing not given here; also: displayed on phage pIX minor coat protein, not shown: pIX minor coat protein of the phage that carries the peptide) [phage displaying the peptide of SEQ ID NO: 12 on the pIX minor coat protein] | binds | no binding (tested: 10^9 phage/mL) |  | 
7 | AGSPCSPGQLPLCPA (cysteine pairing not given here; also: displayed on phage pIX minor coat protein, not shown: pIX minor coat protein of the phage that carries the peptide) [phage displaying the peptide of SEQ ID NO: 9 on the pIX minor coat protein] | binds | no binding (tested: 10^9 phage/mL) |  | 
8 | AGYRCSELPLYCST (cysteine pairing not given here; also: displayed on phage pIX minor coat protein, not shown: pIX minor coat protein of the phage that carries the peptide) [phage displaying the peptide of SEQ ID NO: 7 on the pIX minor coat protein] |  |  |  | binds
9 | AGRDSFNLLTSSSSPST [SEQ ID NO: 31] |  |  | binds | 
10 | AGSWCTHPAIGCLS (cysteine pairing not given here; also: displayed on phage pIX minor coat protein, not shown: pIX minor coat protein of the phage that carries the peptide) [phage displaying the peptide of SEQ ID NO: 8 on the pIX minor coat protein] | binds | no binding (tested: 10^9 phage/mL) |  | 
11 | AGPRCPPMHFSVCLS (cysteine pairing not given here; also: displayed on phage pIX minor coat protein, not shown: pIX minor coat protein of the phage that carries the peptide) [phage displaying the peptide of SEQ ID NO: 11 on the pIX minor coat protein] | binds | no binding (tested: 10^9 phage/mL) |  | 
12 | AGLPLQSMSRLSYDSLS (also: displayed on phage pIX minor coat protein, junction not given here, not shown: pIX minor coat protein of the phage that carries the peptide) [phage displaying the peptide of SEQ ID NO: 1 on the pIX minor coat protein] | binds | no binding (tested: 10^9 phage/mL) |  | 
13 | AGYTSFALSSSAESTLP [SEQ ID NO: 26] |  |  | no binding (tested: 1.00E+10 phage/well) | 
14 | AGRDSFNLLTSSPLPST (also: displayed on phage pIX minor coat protein, junction not given here, not shown: pIX minor coat protein of the phage that carries the peptide) [phage displaying the peptide of SEQ ID NO: 6 on the pIX minor coat protein] |  | no binding (tested: 10^9 phage/mL) |  | 
15 | AGRSCYREPSTMLYACTA (cysteine pairing not given here; also: displayed on phage pIX minor coat protein, not shown: pIX minor coat protein of the phage that carries the peptide) [phage displaying the peptide of SEQ ID NO: 22 on the pIX minor coat protein] | binds | no binding (tested: 10^9 phage/mL) |  | 
16 | AGYRRPIQPGPEAVSLL (also: displayed on phage pIX minor coat protein, junction not given here, not shown: pIX minor coat protein of the phage that carries the peptide) [phage displaying the peptide of SEQ ID NO: 5 on the pIX minor coat protein] | binds | no binding (tested: 10^9 phage/mL) |  | 
17 | AGRLCHATVDGVAVGCLT (cysteine pairing not given here; also: displayed on phage pIX minor coat protein, not shown: pIX minor coat protein of the phage that carries the peptide) [phage displaying the peptide of SEQ ID NO: 18 on the pIX minor coat protein] | binds | no binding (tested: 10^9 phage/mL) |  | 
18 | AGTLCGVDDYTGLTGCLA (cysteine pairing not given here; also: displayed on phage pIX minor coat protein, not shown: pIX minor coat protein of the phage that carries the peptide) [phage displaying the peptide of SEQ ID NO: 20 on the pIX minor coat protein] | binds | no binding (tested: 10^9 phage/mL) |  | 
19 | AGSTCIPSMTPLCPS (cysteine pairing not given here; also: displayed on phage pIX minor coat protein, not shown: pIX minor coat protein of the phage that carries the peptide) [phage displaying the peptide of SEQ ID NO: 13 on the pIX minor coat protein] | binds | no binding (tested: 10^9 phage/mL) |  | 
20 | AGRDSFNLSSSSPLPST [SEQ ID NO: 30] |  |  | no binding (tested: 1.00E+10 phage/well) | 
21 | AGRECLPQFGLPLCPD (cysteine pairing not given here; also: displayed on phage pIX minor coat protein, not shown: pIX minor coat protein of the phage that carries the peptide) [phage displaying the peptide of SEQ ID NO: 14 on the pIX minor coat protein] | binds | no binding (tested: 10^9 phage/mL) |  | 
22 | AGPDCRLSPLQPAVCVW (cysteine pairing not given here; also: displayed on phage pIX minor coat protein, not shown: pIX minor coat protein of the phage that carries the peptide) [phage displaying the peptide of SEQ ID NO: 16 on the pIX minor coat protein] | binds | no binding (tested: 10^9 phage/mL) |  | 
23 | AGAHCLRDHMGLTSCIP (cysteine pairing not given here; also: displayed on phage pIX minor coat protein, not shown: pIX minor coat protein of the phage that carries the peptide) [phage displaying the peptide of SEQ ID NO: 17 on the pIX minor coat protein] | binds | no binding (tested: 10^9 phage/mL) |  | 
24 | AGLQCSPPLPLYCEP (cysteine pairing not given here; also: displayed on phage pIX minor coat protein, not shown: pIX minor coat protein of the phage that carries the peptide) [phage displaying the peptide of SEQ ID NO: 10 on the pIX minor coat protein] | binds | no binding (tested: 10^9 phage/mL) |  | 
